Common to all, as to assay: FRET or BRET
The target of assay [1] is YFP-DWORF (dwarf open reading frame) (UniProt P0DN84).
For assay [2] the target is unchanged. This is another data set of the same source.
For assay [3], the target named is YFP-sarcolipin (SLN) (UniProt O00631).
Assay [4] shares this target. This is another data set of the same source.

Read-outs that look alike come from different tables or passages of the source.

YFP-sarcolipin (SLN) (from UniProt O00631 1-31) (natural protein), sequence (O00631 whole entry): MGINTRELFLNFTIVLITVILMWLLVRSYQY

Take “YFP-DWORF (dwarf open reading frame) (from UniProt P0DN84 1-35) (natural protein)”: the percent of donors in FRET (oligomer subpopulation) worked out at 23.4% in assay [1] and 20% in assay [2].
Turning to “YFP-sarcolipin (SLN) (from UniProt O00631 1-31) (natural protein)”, the stoichiometry N in assay [3] was over 2; in assay [4], 2.

The record behind these values is PMC6885550.
